Here are results for two substances from PMC8244358.

Test [1] addresses Cfl1 (Cif-like epoxide hydrolase 1) from Burkholderia cenocepacia strain J2315 / K56-2 (Burkholderia cenocepacia strain K56-2 (identical to strain J2315)). Kind of test: crystal structure; hanging drop vapor diffusion; X-ray, 2.2 Å; molecular replacement with a Cif monomer.
The target in test [2] is Cfl2 (Cif-like epoxide hydrolase 2) from Burkholderia cenocepacia strain HI2424 (Burkholderia cenocepacia strain HI2424). The description is as above.

On to “Cfl1 (Cif-like epoxide hydrolase 1) from Burkholderia cenocepacia strain J2315 / K56-2 (enzyme)”, for which the stoichiometry N – broadly, the number of molecules, sites or subunits per partner or assembly – in test [1] was 8. Take “Cfl2 (Cif-like epoxide hydrolase 2) from Burkholderia cenocepacia strain HI2424 (enzyme)”: the stoichiometry N in test [2] was 10.
